From publication PMC3961685, “Origin of the Proton-transfer Step in the Cofactor-free (1H)-3-Hydroxy-4-oxoquinaldine 2,4-Dioxygenase” (The Journal of Biological Chemistry, 2014) come the findings set out here.

For data set [1], the target named is T1, HOD (WT HOD = HOD C69S); (1H)-3-hydroxy-4-oxoquinaldine 2,4-dioxygenase (Paenarthrobacter nitroguajacolicus, UniProt O31266, C69S/H251A).
T1 construct: full-length HOD C69S in pQE30 (His-tag vector, Ni column); ~31 kDa monomer
As to the kind of experiment: X-ray crystal structure, […] Å, crystal soaked with QND. The format is binding. Particulars: 2 mM QND soak about 2 h, pH 7.0; active site.

In data set [2] the target is T2, HOD (WT HOD = HOD C69S); (1H)-3-hydroxy-4-oxoquinaldine 2,4-dioxygenase (Paenarthrobacter nitroguajacolicus, UniProt O31266, C69S).
T2 construct: full-length HOD C69S in pQE30 (His-tag vector, Ni column); ~31 kDa monomer
Briefly: anaerobic stopped-flow, QND deprotonation at […] nm, kobs vs [QND] fit. The format is binding.

The test system of data set [3] is Cc1[nH]c2ccccc2c(=O)c1O. Briefly: purified protein. It counts as biochemical, Paenarthrobacter nitroguajacolicus. Particulars: pH 6.5, air-saturated 0.1 M MTE, 5 mM NaCl, 2 mM EDTA, 20 °C, O2 co-substrate, also measured at pH 10.5.

As a reminder, the Kd is the constant that tells how readily two partners part at equilibrium. A high value points to a looser complex. The Km is the substrate concentration at which the rate is half of its maximum. For orientation: kcat means the maximal rate divided by the concentration of active sites.

T1 sequence (O31266 whole entry C69S/H251A): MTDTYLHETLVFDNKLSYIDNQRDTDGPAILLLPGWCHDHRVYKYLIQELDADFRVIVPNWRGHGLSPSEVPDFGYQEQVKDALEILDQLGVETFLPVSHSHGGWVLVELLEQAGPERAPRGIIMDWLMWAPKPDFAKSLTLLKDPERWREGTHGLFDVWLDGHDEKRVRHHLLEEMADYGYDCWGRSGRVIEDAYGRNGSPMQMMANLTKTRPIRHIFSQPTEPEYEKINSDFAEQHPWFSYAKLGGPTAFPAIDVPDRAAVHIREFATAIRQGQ
T2 sequence (O31266 whole entry C69S): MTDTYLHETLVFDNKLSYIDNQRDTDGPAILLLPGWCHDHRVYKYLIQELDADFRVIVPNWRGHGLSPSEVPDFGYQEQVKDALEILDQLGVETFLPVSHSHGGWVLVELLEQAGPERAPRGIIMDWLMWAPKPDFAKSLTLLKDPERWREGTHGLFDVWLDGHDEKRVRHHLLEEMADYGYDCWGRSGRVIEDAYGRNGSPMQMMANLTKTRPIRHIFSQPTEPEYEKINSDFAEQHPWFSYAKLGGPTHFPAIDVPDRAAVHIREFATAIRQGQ

For `Cc1[nH]c2ccccc2c(=O)c1O` [QND, (1H)-3-hydroxy-4-oxoquinaldine], the “X-ray crystal structure, 1.95 Å, crystal soaked with QND” value in data set [1] is given as “we solved the x-ray structure of this variant in complex with the QND substrate”. In data set [2], this compound yielded a Kd of 214 ± 9 µM.

Regarding “HOD (WT HOD = HOD C69S); (1H)-3-hydroxy-4-oxoquinaldine 2,4-dioxygenase (Paenarthrobacter nitroguajacolicus; C69S)”, in data set [3], the Km was found to be 3.2 ± 0.1 µM and the turnover number (kcat) worked out at 16.3 ± 0.1 s⁻¹.

Take “HOD (WT HOD = HOD C69S); (1H)-3-hydroxy-4-oxoquinaldine 2,4-dioxygenase (Paenarthrobacter nitroguajacolicus; C69S/D126A)”: in data set [3], the Km was 20.9 ± 0.6 µM and the kcat worked out at 0.19 ± 0.01 s⁻¹.

As for “HOD (WT HOD = HOD C69S); (1H)-3-hydroxy-4-oxoquinaldine 2,4-dioxygenase (Paenarthrobacter nitroguajacolicus; C69S/H251A)”, in data set [3], the Km was determined as 58.9 ± 14.6 µM and the kcat stood at 0.0006 ± 0.0001 s⁻¹.
